Data published in patent publication US20230081195A1 (INSTITUTE OF GENETICS AND DEVELOPMENT BIOLOGY CHINESE …, published 2023).
Each block holds one binder with its values, some of them ahead of it.

Assays:
recombinant OML4 = biological target: T1, recombinant OML4
T1 chain: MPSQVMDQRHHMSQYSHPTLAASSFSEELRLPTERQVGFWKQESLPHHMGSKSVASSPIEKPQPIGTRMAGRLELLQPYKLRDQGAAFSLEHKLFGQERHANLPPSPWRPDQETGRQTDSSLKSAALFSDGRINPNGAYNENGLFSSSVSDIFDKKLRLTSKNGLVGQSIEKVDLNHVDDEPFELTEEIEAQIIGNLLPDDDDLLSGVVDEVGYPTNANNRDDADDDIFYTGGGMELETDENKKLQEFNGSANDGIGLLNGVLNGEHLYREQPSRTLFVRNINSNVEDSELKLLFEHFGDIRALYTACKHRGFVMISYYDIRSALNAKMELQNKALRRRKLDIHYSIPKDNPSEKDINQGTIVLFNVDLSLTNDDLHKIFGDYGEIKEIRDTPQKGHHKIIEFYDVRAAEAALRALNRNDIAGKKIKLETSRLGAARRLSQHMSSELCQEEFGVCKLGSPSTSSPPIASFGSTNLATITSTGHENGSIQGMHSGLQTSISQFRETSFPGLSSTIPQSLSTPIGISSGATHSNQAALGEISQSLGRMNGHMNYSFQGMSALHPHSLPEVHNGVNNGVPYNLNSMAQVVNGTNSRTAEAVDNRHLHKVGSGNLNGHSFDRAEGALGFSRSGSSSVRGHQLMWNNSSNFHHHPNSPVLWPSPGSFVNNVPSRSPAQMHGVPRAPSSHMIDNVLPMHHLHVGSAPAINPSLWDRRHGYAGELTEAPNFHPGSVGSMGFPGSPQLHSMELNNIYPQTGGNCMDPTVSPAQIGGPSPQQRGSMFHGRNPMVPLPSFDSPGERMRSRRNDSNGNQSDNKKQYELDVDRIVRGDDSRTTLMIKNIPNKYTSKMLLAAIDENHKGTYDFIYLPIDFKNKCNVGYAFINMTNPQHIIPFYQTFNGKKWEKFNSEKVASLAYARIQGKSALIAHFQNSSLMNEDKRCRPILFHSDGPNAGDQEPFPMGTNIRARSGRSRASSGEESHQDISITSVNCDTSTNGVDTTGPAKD

OML4-cYFP = biological target: T2, OML4-cYFP (rice, UniProt Q64M78 1-1001); experiment: bimolecular fluorescence complementation (BiFC), confocal microscopy
T2 construct: Transiently expressed in N. benthamiana leaves; Order of the pieces follows the printed name; also called OML4 fused with the C-terminus of the yellow fluorescent protein; not shown: C-terminus of the yellow fluorescent protein (cYFP, vector pGBW414-cYFP)
T2 sequence: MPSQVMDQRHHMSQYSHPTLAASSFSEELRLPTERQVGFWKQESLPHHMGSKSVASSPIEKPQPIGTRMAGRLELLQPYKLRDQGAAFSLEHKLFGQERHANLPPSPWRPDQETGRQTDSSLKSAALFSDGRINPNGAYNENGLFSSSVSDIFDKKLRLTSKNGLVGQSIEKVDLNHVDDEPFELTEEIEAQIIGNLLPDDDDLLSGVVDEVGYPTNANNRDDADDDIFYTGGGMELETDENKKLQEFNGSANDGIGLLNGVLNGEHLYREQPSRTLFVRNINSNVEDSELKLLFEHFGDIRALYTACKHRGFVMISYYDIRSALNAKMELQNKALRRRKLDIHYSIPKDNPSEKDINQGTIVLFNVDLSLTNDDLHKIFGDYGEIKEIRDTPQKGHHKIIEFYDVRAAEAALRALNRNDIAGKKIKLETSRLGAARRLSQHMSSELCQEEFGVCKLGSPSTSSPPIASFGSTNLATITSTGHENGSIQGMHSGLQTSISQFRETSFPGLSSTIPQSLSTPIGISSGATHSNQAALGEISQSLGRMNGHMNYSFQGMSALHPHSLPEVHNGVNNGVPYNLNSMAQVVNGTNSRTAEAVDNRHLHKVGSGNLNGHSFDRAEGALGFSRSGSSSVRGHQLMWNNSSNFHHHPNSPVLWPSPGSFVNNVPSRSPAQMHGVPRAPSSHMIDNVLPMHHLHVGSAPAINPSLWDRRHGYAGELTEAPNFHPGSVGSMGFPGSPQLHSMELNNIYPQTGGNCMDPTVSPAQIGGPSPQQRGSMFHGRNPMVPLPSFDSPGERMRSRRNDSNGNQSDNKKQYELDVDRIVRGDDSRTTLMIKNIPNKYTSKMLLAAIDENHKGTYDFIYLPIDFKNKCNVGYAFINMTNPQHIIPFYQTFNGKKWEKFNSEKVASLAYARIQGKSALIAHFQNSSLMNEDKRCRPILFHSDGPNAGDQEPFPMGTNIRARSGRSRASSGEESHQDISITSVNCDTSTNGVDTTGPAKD
Protocol: (A) OML4 interacts with GSK2 in yeast cells. Yeast cells were cultured on SD/-Trp-Leu or SD/-Trp-Leu-His-Ade media. (B) OML4 associates with GSK2 in N. benthamiana. OML4-nLUC and GSK2-cLUC were co-expressed in N. benthamiana leaves. Luciferase activity was observed 48 hours after infiltration. The range of luminescence intensity was scaled by the pseudocolor bar. (C) Bimolecular fluorescence complementation (BiFC) assays shown that OML4 interacts with GSK2 in N. benthamiana. OML4-cYFP was coexpressed with GSK2-nYFP in leaves of N. benthamiana. (D) OML4 binds GSK2 in vitro. GSK2-GST was incubated with OML4-MBP and pulled down by OML4-MBP and detected by immunoblot with anti-GST antibody. IB: immunoblot. (E) Interaction between OML4 and GSK2 in the Co-IP assays. Anti-MYC beads were used to immunoprecipitate GSK2-GFP proteins. Gel blots were probed with anti-MYC or anti-GFP antibody. Bars: 50 μm in C.
We next verified the interaction between OML4 and GSK2 in plant cells using the firefly luciferase (LUC) complementation imaging assay (FIG. 5B). The OML4-nLUC and GSK2-cLUC were transformed and co-expressed in N. benthamiana leaves. […] We then performed bimolecular fluorescence complementation (BiFC) assay to test the interaction between OML4 and GSK2 in plant cells (FIG. 5C). […]

[1] = biological target: T3, OML4 full-length protein, yeast two-hybrid bait (OML4 cDNA in pGBKT7) (rice, UniProt Q64M78 1-1001); experiment: yeast two-hybrid, OML4 full-length protein as bait
T3 construct: Expressed in yeast cells; also called Mei2-Like protein 4; LARGE1; not shown: fusion partner encoded by vector pGBKT7
T3 sequence: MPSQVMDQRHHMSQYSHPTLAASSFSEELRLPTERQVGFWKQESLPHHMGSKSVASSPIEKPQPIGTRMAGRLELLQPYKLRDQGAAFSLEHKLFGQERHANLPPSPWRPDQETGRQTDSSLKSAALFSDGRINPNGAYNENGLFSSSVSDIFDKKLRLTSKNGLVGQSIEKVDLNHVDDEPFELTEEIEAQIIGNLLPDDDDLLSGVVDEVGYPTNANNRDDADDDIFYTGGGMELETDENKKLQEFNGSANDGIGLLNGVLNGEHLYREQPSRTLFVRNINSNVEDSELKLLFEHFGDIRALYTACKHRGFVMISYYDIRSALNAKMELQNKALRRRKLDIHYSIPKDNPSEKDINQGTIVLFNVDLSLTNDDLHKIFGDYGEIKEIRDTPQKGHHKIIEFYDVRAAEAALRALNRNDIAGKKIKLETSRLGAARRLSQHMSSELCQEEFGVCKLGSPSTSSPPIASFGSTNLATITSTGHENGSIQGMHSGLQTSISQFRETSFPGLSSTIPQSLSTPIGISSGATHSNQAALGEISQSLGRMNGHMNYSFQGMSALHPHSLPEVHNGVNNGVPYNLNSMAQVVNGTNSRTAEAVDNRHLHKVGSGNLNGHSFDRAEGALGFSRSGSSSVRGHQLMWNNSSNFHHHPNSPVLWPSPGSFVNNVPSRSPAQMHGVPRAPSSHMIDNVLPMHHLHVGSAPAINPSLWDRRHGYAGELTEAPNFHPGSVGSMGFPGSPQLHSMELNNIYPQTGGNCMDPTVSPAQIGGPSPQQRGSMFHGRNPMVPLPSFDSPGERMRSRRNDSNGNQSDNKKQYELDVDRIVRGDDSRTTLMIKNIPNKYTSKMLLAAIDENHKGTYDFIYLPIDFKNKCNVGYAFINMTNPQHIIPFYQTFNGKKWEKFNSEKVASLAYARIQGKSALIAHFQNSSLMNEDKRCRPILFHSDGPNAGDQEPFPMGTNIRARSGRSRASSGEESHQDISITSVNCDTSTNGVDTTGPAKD
Text: To further understand the molecular role of OML4 in grain growth control, we identified its interacting partners through a yeast two-hybrid (Y2H) assay. The OML4 full-length protein was used as the bait. Among several interacting proteins, six different clones corresponding to GSK2 were found in this screen. […] We further confirmed the interaction of OML4 with the full length GSK2 in yeast cells (FIG. 5A).
The cDNA sequences of GSK2 and OML4 were amplified using gene-specific primers (Table S4), and products were fused into the linearized pGADT7 and pGBKT7 vectors, respectively. Yeast two-hybrid analysis was conducted according to the manufacturer's instruction (Clontech, USA).

B1: recombinant GSK2 (protein)
chain: MDQPAPAPEPMLLDAQPPAAVACDKKQQEGEAPYAEGNDAVTGHIISTTIGGKNGEPKRTISYMAERVVGTGSFGIVFQAKCLETGETVAIKKVLQDRRYKNRELQLMRAMDHPNVISLKHCFFSTTSRDELFLNLVMEYVPETLYRVLKHYSNANHRMPLIYVKLYMYQLFRGLAYIHTVPGVCHRDVKPQNVLVDPLTHQVKLCDFGSAKTLVPGEPNISYICSRYYRAPELIFGATEYTTSIDIWSAGCVLAELLLGQPLFPGESAVDQLVEIIKVLGTPTREEIRCMNPNYTEFRFPQIKAHPWHKVFHKRMPPEAIDLASRLLQYSPSLRCTALDACAHPFFDELREPNARLPNGRPFPPLFNFKHELANSSQELISRLIPEHVRRQATHNFFNTGS
phosphopeptides of OML4 found by LC-MS/MS after in vitro kinase reaction (recombinant OML4): We identified 18 phosphopeptides of OML4, which correspond to 14 phosphosites
phosphosites of OML4 found by LC-MS/MS after in vitro kinase reaction (recombinant OML4): We identified 18 phosphopeptides of OML4, which correspond to 14 phosphosites

binding result (OML4-cYFP): binds
B2: GSK2-nYFP (enzyme)
chain: MDQPAPAPEPMLLDAQPPAAVACDKKQQEGEAPYAEGNDAVTGHIISTTIGGKNGEPKRTISYMAERVVGTGSFGIVFQAKCLETGETVAIKKVLQDRRYKNRELQLMRAMDHPNVISLKHCFFSTTSRDELFLNLVMEYVPETLYRVLKHYSNANHRMPLIYVKLYMYQLFRGLAYIHTVPGVCHRDVKPQNVLVDPLTHQVKLCDFGSAKTLVPGEPNISYICSRYYRAPELIFGATEYTTSIDIWSAGCVLAELLLGQPLFPGESAVDQLVEIIKVLGTPTREEIRCMNPNYTEFRFPQIKAHPWHKVFHKRMPPEAIDLASRLLQYSPSLRCTALDACAHPFFDELREPNARLPNGRPFPPLFNFKHELANSSQELISRLIPEHVRRQATHNFFNTGS
notes: Transiently expressed in N. benthamiana leaves; Order of the pieces follows the printed name; also called GSK2 fused with the N-terminus of the yellow fluorescent protein; not shown: N-terminus of the yellow fluorescent protein (nYFP, vector pGBW414-nYFP)

binding result [1]: binds
B3: full length GSK2, yeast two-hybrid prey (GSK2 cDNA in pGADT7) (enzyme)
chain: MDQPAPAPEPMLLDAQPPAAVACDKKQQEGEAPYAEGNDAVTGHIISTTIGGKNGEPKRTISYMAERVVGTGSFGIVFQAKCLETGETVAIKKVLQDRRYKNRELQLMRAMDHPNVISLKHCFFSTTSRDELFLNLVMEYVPETLYRVLKHYSNANHRMPLIYVKLYMYQLFRGLAYIHTVPGVCHRDVKPQNVLVDPLTHQVKLCDFGSAKTLVPGEPNISYICSRYYRAPELIFGATEYTTSIDIWSAGCVLAELLLGQPLFPGESAVDQLVEIIKVLGTPTREEIRCMNPNYTEFRFPQIKAHPWHKVFHKRMPPEAIDLASRLLQYSPSLRCTALDACAHPFFDELREPNARLPNGRPFPPLFNFKHELANSSQELISRLIPEHVRRQATHNFFNTGS
notes: Expressed in yeast cells; The six GSK2 clones found in the first screen are not described further; also called glycogen synthase kinase 2; SHAGGY-like kinase; not shown: fusion partner encoded by vector pGADT7
